Test results taken from article PMC3581573 (PLoS ONE, 2013).

Legend:
[1] = biological target: the molecule itself; assay: crystal structure; XlPRMT5-MEP50 co-crystallised with 1 mM SAH; 30%–40% MPD, 100 mM Bis-Tris pH 5.5, 18°C; 3.0 Å
[2] = biological target: T1, Recombinant Flag-tagged human PRMT5 (human, UniProt O14744 1-637); assay: pull-down; XlMEP50 and Flag-HsPRMT5 (both 50 nM) on anti-Flag M2 agarose in TBS, 4°C, 2 hours; eluate immunoblotted for PRMT5 and MEP50; control: MEP50 without PRMT5; details: both partners purified
T1 construct: Protein arginine methyltransferase 5 (PRMT5), human; also called Flag-HsPRMT5; HsPRMT5; source: bought: SinoBiologicals (expressed in 293 cells)
T1 sequence (O14744 whole entry): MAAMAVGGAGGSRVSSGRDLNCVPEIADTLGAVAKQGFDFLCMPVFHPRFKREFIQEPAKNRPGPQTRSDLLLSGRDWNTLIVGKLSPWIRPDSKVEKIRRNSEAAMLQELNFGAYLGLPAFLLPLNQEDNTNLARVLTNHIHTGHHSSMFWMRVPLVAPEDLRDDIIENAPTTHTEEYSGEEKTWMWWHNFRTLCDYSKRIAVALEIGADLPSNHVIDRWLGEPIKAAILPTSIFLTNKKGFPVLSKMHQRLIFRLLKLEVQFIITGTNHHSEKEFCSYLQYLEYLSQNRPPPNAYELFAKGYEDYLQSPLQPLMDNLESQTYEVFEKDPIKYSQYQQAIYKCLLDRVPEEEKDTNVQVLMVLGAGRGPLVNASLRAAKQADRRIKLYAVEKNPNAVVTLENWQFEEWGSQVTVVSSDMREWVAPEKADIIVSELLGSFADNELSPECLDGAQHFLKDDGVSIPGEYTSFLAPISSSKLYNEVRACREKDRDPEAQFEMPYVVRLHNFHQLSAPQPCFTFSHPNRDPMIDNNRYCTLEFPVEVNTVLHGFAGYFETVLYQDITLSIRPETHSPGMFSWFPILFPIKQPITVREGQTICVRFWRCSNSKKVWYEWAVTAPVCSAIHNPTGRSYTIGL

B1: Xenopus laevis PRMT5 (enzyme, UniProt Q6NUA1 1-633, looked up)
chain: MAAGDGGRVSSGRDVACVTEVADTLGAMANQGFDFLCMPIFHPRFKREFYKEPAKSRPGPQTRSDLLLSGRDWNTLIVGKLSDWIKTDSEVSRIRKTSEAAMQQELNFSAYLGLPAFLIPLKQEDNSNLSRLLINHIHVGHHSTMFWMRVPLMAPNDLRDDLIENEPISLSEEDNSGEERTWIWWHNFRSLCDYNKKIALAIEIGADLPSGHVIDRWLGEPIKAAFLPTSIFLTNKKGFPVLTKVHQRLIFKLFKLEVQFVISGSHHHSEKDLCSYLQYLEYLSQNSPPPNAYEMFAKGYEDYLQSPLQPLMDNLESQTYEVFEKDPVKYSQYQQAVYKCLLDRVPEEEKETNIQILMVLGAGRGPLVNASLRAAKQAERKIKVYAVEKNPNAVITLEGWRYEEWGSQVTVVSGDMREWKAPEKADIIVSELLGSFGDNELSPECLDGAQHFLKDDGVSIPGEYTSYLAPISSSKLYNEVRACREKDRDPEAQFEMPYVVRLHNFHQLSDPLPCFTFHHPNKDDVIDNNRYCCLQYRVDLNTVLHGFAGYFNTVLYKDVTLSICPESHSPGMFSWFPILFPIKQPIPMREGDTVCVRFWRCNNGKKVWYEWAVTSPVCSAIHNPTGRSYTIGL
notes: Protein arginine methyltransferase 5 (PRMT5), Xenopus laevis, full-length, as the PRMT5 chain of the crystallised XlPRMT5-MEP50 complex; The complex was purified on Ni-NTA, so one or both chains probably carry a His tag; A selenomethionine form was used for phasing; also called XlPRMT5; source: Hi5 cells, baculovirus, co-expressed with MEP50, purified (Ni-NTA, Superdex 200)
B1 was tested, and the “stoichiometry N” value [1] was 4.

B2: Recombinant Xenopus laevis MEP50 alone (natural protein, UniProt Q6NUD0 1-333, looked up)
chain: MSKGSAWGRPVTAPACMEVQIGAVRYRRDGALLLAASSLSSRTWGGSIWVFKDPEGAPNESLCTAGVQTEAGVTDVAWVSEKGILVASDSGAVELWEILEKESLLVNKFAKYEHDDIVKTLSVFSDGTQAVSGGKDFSVKVWDLSQKAVLKSYNAHSSEVNCVAACPGKDTIFLSCGEDGRILLWDTRKPKPATRIDFCASDTIPTSVTWHPEKDDTFACGDETGNVSLVNIKNPDSAQTSAVHSQNITGLAYSYHSSPFLASISEDCTVAVLDADFSEVFRDLSHRDFVTGVAWSPLDHSKFTTVGWDHKVLHHHLPSEGRTENLIATKAED
notes: MEP50, Xenopus laevis; recombinant protein used without PRMT5; also called XlMEP50; Xenopus MEP50
B2: binds [2].
